{"source": "patent US20040091453", "about": "“Pancreatic langerhans beta cell proliferation promoter and apoptosis inhibitor, and screening of candidate compounds for the e drugs” (published 2004)", "binders": {"B1": {"name": "Probe 1 (rat Reg -86 to -65) (dsDNA)", "DNA 1": "TTCCTTGCCCCTCCCATTTTTC", "DNA 2": "GAAAAATGGGAGGGGCAAGGAA"}}, "target": "PARP (poly(ADP-ribose) polymerase), purified (Homo sapiens, UniProt P09874 P09874:2-1014)", "sequence (P09874 2-1014, one chain of several)": "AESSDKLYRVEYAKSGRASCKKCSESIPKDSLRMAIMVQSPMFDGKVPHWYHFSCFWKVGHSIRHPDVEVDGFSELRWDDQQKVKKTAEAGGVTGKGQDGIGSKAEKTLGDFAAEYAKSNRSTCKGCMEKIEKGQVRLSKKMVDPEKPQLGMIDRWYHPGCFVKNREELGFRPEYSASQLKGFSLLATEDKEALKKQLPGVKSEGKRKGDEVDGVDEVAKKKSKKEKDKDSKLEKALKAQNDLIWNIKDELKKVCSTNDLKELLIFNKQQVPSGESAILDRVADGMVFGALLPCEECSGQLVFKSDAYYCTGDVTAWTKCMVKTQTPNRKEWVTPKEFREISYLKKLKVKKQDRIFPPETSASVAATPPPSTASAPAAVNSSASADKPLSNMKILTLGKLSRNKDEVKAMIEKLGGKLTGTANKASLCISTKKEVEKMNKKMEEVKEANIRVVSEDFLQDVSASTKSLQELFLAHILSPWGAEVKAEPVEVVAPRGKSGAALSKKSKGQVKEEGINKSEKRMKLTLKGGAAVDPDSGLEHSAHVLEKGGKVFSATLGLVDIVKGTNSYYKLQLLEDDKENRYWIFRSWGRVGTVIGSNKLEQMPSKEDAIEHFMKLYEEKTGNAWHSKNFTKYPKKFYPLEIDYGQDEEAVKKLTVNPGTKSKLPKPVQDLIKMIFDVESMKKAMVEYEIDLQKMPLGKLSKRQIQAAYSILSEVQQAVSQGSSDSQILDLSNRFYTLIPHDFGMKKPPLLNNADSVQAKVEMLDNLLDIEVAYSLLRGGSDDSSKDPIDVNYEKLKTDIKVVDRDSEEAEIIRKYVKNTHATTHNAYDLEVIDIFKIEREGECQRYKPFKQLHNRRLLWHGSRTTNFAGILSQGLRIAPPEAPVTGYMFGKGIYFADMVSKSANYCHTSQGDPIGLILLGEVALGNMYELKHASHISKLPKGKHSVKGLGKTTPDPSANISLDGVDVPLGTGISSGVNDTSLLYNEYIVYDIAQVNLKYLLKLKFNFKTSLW", "experiment": "EMSA; 10 ng PARP; retarded band at position different from nuclear extract complex; room temperature, 2 mM MgCl2, 50 mM NaCl", "details": "tags: Trevigen Inc; label: 32P", "method": "Biophys. Acta, 1219, 241-243) and stored at −80° C. until use. GMSA was performed by the method of Garabedian (Garabedian, M. J. et al. Analysis of protein—DNA interactions in Gene Transcription: A practical approach (Hamesm, B. D., and Higgins, S. J. eds.), pp. 243-293, IRL Press, Oxford (1993)). The nuclear extract (10 μg) was incubated in a final volume of 20 μl of buffer containing 20 mM Tris-HCl (pH 7.9), 2 mM MgCl₂, 50 mM NaCl, 2 mM EDTA, 10% glycerol, 0.1% Nonidet P-40, 1 mM DTT, 50 μg/ml bovine serum albumin and 1 μg of poly(dI-dC). After incubation for 10 min at room temperature, 2.5 pmol of double-stranded DNA, previously labeled by an exchange reaction using MEGALABEL™ (Takara Shuzo) and [γ-³²P]ATP (Amersham Pharmacia Biotech), were added and incubated for 30 min at room temperature, then the binding reactions were resolved on pre-run 6% acrylamide gel. When competition experiments were conducted in the presence of 100-fold molar excess of cold probe, an unlabeled competitor was added with the labeled probe. In the supershift assay, 2 μg of anti-Sp1, -Sp2, -Sp3 or -Sp4 antibody (Santa Cruz) were added prior to the addition of the ³²P-probe. […] DNA was detected by immunoblot using an ECL 3′-oligolabelling and detection system (Amersham Pharmacia Biotech). […]"}
{"binder": "B1", "values": [{"measurement": "binding result", "result": "binds"}]}
